Results published in patent US20220154204.

Biological target: T1, GST-OST1/SnRK2.6, Q940H6
T1 chain: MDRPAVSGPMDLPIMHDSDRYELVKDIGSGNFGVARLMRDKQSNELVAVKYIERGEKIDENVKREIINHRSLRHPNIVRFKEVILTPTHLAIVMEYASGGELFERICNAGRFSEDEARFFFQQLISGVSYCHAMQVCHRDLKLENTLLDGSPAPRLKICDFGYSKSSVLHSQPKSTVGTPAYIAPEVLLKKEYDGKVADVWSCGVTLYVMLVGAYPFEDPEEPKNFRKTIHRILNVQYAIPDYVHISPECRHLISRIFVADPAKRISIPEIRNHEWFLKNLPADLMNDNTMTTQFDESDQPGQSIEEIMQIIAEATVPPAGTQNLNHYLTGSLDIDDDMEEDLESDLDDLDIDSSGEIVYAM

B1: MPK12 (protein)
chain: MSGESSSGSTEHCIKVVPTHGGRYVQYNVYGQLFEVSRKYVPPIRPIGRGACGIVCAAVNSVTGEKVAIKKIGNAFDNIIDAKRTLREIKLLRHMDHENVITIKDIVRPPQRDIFNDVYIVYELMDTDLQRILRSNQTLTSDQCRFLVYQLLRGLKYVHSANILHRDLRPSNVLLNSKNELKIGDFGLARTTSDTDFMTEYVVTRWYRAPELLLNCSEYTAAIDIWSVGCILGEIMTGQPLFPGKDYVHQLRLITELVGSPDNSSLGFLRSDNARRYVRQLPRYPKQQFAARFPKMPTTAIDLLERMLVFDPNRRISVDEALGHAYLSPHHDVAKEPVCSTPFSFDFEHPSCTEEHIKELIYKESVKFNPDH
**Q.** With B1 as the protein, how does the “in vitro phosphorylation assay with 32P-ATP after dephosphorylation of OST1” value read?
**A.** did not phosphorylate OST1/SnRK2.6 after dephosphorylation
